# Values joined by “and” are separate entries in the source; they are usually repeats but may differ in a detail not shown here. Equal values may be shown once.
# Columns and labels:
# fibrinogen solution = assay: Stability of TGplPTH1-34 over time in fibrinogen solution stored at room temperature (HPLC-UV); assay type: physicochemical; conditions: for TGplPTH1-34 content Mean ± SD / % loss of TGplPTH1-34: in fibrinogen solution; for TGplPTH1-34 content Mean ± SD: room temperature (20-25° C.); for % loss of TGplPTH1-34: room temperature
# Method: In order to evaluate the stability of TGplPTH1-34 in the fibrinogen component over time, TGplPTH1-34 was mixed with a fibrinogen solution and stored at room temperature.
# TGplPTH1-34 was added to fibrinogen solution at a concentration of 266 μg/ml and incubated at room temperature for up to 34 days. Samples were taken at indicated time points and TGplPTH1-34 concentration was determined by HPLC. Briefly, TGplPTH1-34 was quantified with a HPLC-UV method using a Zorbax Agilent RP18 column (4.6×150 mmm, 5 μm, 300 A) for the separation of related substances. As eluent A: 0.1% TFA, 1% ACN in water and as eluent B: 0.1% TFA in ACN was used. The gradient was 0 min. 26% B; 15 min 38% B; 18 min. 90% B; 22 min 26% B; 24 min 26% B. The injection volume was 20 μl and the flow rate was 1 ml/min. The column temperature was 35° C. A reference standard was used for the calibration curve.
# The results from the TGplPTH1-34 stability analysis in fibrinogen stored at room temperature (20-25° C.) for up to 34 days are shown in Table 2.
# fibrin matrix = biological target: T1, fibrin matrix (Homo sapiens, UniProt P02671+P02675+P02679); assay: Retention assay: covalent binding of TGplPTH1-34 to fibrin matrix (unbound peptide extracted, PTH1-34 ELISA); conditions: for % unbound TGplPTH1-34 in fibrin matrix: 1 mg/ml final; for Average % unbound ± SD: both experiments
# T1 construct: thrombin on one hand cleaves fibrinogen leading to fibrin polymers; purchased Baxter Healthcare AG (ARTISS®)
# T1 sequence (P02671 36-866 limits assumed): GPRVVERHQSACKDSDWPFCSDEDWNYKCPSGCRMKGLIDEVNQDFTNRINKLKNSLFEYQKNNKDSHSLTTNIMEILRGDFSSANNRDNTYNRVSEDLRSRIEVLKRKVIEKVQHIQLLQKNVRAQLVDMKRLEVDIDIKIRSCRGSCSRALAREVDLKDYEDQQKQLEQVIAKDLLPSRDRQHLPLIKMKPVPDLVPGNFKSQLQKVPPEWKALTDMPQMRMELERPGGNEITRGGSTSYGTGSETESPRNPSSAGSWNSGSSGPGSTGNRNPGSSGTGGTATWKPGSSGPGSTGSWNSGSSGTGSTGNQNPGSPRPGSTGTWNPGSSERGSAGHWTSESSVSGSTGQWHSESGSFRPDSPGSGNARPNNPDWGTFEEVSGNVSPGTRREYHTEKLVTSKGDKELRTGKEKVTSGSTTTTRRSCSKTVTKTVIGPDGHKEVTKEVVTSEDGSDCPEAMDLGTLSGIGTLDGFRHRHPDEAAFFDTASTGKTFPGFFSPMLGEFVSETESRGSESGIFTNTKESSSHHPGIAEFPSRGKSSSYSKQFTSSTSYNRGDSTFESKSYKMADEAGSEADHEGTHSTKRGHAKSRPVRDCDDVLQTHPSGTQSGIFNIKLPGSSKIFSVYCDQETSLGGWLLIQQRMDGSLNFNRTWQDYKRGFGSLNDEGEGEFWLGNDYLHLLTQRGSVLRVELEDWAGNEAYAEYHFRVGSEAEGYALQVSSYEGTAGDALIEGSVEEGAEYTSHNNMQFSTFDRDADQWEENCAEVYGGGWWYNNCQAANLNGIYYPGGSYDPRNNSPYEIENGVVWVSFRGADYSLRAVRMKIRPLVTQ
# T1 sequence (P02675 45-491 limits assumed): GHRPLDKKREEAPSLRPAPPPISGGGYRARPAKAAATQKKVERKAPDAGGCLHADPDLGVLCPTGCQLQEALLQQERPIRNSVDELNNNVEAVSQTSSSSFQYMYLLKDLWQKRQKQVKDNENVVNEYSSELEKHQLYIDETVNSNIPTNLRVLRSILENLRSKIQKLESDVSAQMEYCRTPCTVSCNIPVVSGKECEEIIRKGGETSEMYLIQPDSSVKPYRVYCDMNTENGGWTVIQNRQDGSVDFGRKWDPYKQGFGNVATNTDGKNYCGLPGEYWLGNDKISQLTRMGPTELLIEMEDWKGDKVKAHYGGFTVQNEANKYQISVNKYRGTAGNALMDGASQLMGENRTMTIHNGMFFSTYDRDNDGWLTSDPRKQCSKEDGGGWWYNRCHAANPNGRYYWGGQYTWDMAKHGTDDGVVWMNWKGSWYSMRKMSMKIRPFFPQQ
# T1 sequence (P02679 27-433 limits assumed): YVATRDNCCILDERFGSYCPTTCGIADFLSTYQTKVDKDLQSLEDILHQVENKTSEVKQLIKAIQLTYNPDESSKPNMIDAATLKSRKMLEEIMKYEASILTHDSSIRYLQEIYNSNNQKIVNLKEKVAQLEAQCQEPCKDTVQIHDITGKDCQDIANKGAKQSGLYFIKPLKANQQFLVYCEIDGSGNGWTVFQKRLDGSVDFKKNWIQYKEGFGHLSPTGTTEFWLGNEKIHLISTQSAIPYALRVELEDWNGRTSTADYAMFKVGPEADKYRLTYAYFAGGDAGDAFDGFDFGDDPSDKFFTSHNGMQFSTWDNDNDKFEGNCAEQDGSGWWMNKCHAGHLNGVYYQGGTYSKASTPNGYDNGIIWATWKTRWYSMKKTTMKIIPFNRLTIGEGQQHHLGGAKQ
# Method: The percentage of covalent TGplPTH1-34 binding to fibrin matrices was determined in fibrin matrices prepared with two different methods using an indirect assay. With this assay, non-covalently bound TGplPTH1-34 that can be washed out of the matrix is determined. In the first method (pre-mixing), the two components of the fibrin sealant, ARTISS® were thawed and TGplPTH1-34 was premixed with the fibrinogen component at a concentration of 2 mg/ml. Immediately after mixing, the two components of the fibrin sealant were frozen again and stored at −20° C. The samples were then thawed, and the two components of the sealant were mixed. The final concentration of TGplPTH1-34 in mixed fibrin sealant was 1 mg/ml.
# In the second method, the two fibrin sealant components were directly mixed with TGplPTH1-34 solubilized in water to achieve a final concentration of 1 mg/ml (see FIG. 1A).
# To evaluate the amount of TGplPTH1-34 covalently bound to the fibrin matrix with the two methods, samples prepared by either of the two methods were subjected to a retention assay. Aliquots of 50 μl were added to 1.5 ml Eppendorf tubes. The fibrin matrices were then incubated at 37° C. for 1 hour. Unbound TGplPTH1-34 was extracted from the fibrin matrix by addition of 1.5 ml extraction buffer (50 mM Tris pH 9.4, 1M NaCl, 0.1% Tween 20) supplemented with protease Inhibitors (Roche Cat #11836153001 cOmplete™, Mini Protease Inhibitor Co) and incubated under constant shaking. After 3 hours the supernatant was collected and 1.5 ml of fresh extraction buffer was added to the fibrin matrix. This extraction step was repeated after 6, 24, 30 and 48 h. Collected supernatants were stored at −20° C. until further processing.
# To determine the amount of unbound TGplPTH1-34, the 5 collected supernatants were thawed and pooled. TGplPTH1-34 in the pool was determined by ELISA with a commercial PTH1-34 ELISA kit (Immutopics, Cat *60-3900) following the manufacturer's recommendation. Two independent experiments (three samples per fibrin matrix and experiment) were performed with both preparation methods and the amount of TGplPTH1-34 not bound to the fibrin matrix was determined.
substance,measurement,setting,value
"TGplPTH1-34: PTH fusion peptide: TG substrate domain, plasmin cleavage site, PTH1-34; NQEQVSPLYKNRSVSEIQLMHNLGKHLNSMERVEWLRKKLQDVHNF (Synthetic fusion protein)",% of the product degraded,fibrinogen solution; 3-5 days in fibrinogen solution at room temperature (time frame for manufacturing),4.3-7.8%
same,TGplPTH1-34 content Mean ± SD,"fibrinogen solution; day 0, added at 266 μg/ml",232 ± 0.99 µg/mL
same,% loss of TGplPTH1-34,fibrinogen solution; day 3,−4.3%
same,TGplPTH1-34 content Mean ± SD,fibrinogen solution; day 3,222 ± 0.80 µg/mL
same,% loss of TGplPTH1-34,fibrinogen solution; day 5,−7.8%
same,TGplPTH1-34 content Mean ± SD,fibrinogen solution; day 5,214 ± 1.48 µg/mL
same,% loss of TGplPTH1-34,fibrinogen solution; day 7,−10.3%
same,TGplPTH1-34 content Mean ± SD,fibrinogen solution; day 7,208 ± 1.76 µg/mL
same,% loss of TGplPTH1-34,fibrinogen solution; day 14,−17.2%
same,TGplPTH1-34 content Mean ± SD,fibrinogen solution; day 14,192 ± 2.28 µg/mL
same,% loss of TGplPTH1-34,fibrinogen solution; day 21,−24.1%
same,TGplPTH1-34 content Mean ± SD,fibrinogen solution; day 21,176 ± 1.57 µg/mL
same,% loss of TGplPTH1-34,fibrinogen solution; day 29,−25.9%
same,TGplPTH1-34 content Mean ± SD,fibrinogen solution; day 29,172 ± 2.51 µg/mL
same,% loss of TGplPTH1-34,fibrinogen solution; day 34,−28.0%
same,TGplPTH1-34 content Mean ± SD,fibrinogen solution; day 34,167 ± 1.2 µg/mL
same,degradation of the fusion peptide in fibrinogen solution,fibrinogen solution; exposure for more than 5 days at room temperature,substantial degradation
same,% unbound TGplPTH1-34 in fibrin matrix,"fibrin matrix; First method (pre-mixing with fibrinogen component, refrozen), Experiment 1, samples 1-3",16.8% and 14.4% and 13.9%
same,% unbound TGplPTH1-34 in fibrin matrix,"fibrin matrix; First method (pre-mixing with fibrinogen component, refrozen), Experiment 2, samples 1-3",14.7% and 10.2% and 15.1%
same,Average % unbound ± SD,fibrin matrix; First method (pre-mixing),14.2 ± 2.2%
same,Average % unbound ± SD,fibrin matrix; Second method (direct mixing),14.0 ± 1.4%
same,% unbound TGplPTH1-34 in fibrin matrix,"fibrin matrix; Second method (sealant components directly mixed with TGplPTH1-34 in water), Experiment 1, samples 1-3",13.9% and 11.3% and 15.4%
same,% unbound TGplPTH1-34 in fibrin matrix,"fibrin matrix; Second method (sealant components directly mixed with TGplPTH1-34 in water), Experiment 2, samples 1-3",14.4% and 14.7%
